The numbers were not newly measured in paper PMC7955094, which cites them from elsewhere.

The term pKa denotes the negative logarithm of the acid dissociation constant.

For this series, the target named is His19 (UniProt position 19, ILSALHFMAWT). Particulars: membrane-bound BM2 tetramer, wild type.

Turning to “Influenza B virus M2 protein (BM2) proton channel (Influenza B virus (this article's own samples use strain B/Maryland/1/2001; the strain of the quoted pKa study is not stated))”, the pKa is given as 5.1.
